Reference: patent US7456007B1, “β-secretase enzyme compositions and methods” (Elan Pharmaceuticals, Inc., priority 1998, dated 2008)
[ ]: non-standard residue; d: D form. Sta = CC(C)C[C@H](N)[C@@H](O)CC(=O)O

Target: β-secretase (Homo sapiens, UniProt P56817)
Experiment: β-secretase inhibition, assay not specified
Assay type: biochemical

Chain of β-secretase (P56817 46-501): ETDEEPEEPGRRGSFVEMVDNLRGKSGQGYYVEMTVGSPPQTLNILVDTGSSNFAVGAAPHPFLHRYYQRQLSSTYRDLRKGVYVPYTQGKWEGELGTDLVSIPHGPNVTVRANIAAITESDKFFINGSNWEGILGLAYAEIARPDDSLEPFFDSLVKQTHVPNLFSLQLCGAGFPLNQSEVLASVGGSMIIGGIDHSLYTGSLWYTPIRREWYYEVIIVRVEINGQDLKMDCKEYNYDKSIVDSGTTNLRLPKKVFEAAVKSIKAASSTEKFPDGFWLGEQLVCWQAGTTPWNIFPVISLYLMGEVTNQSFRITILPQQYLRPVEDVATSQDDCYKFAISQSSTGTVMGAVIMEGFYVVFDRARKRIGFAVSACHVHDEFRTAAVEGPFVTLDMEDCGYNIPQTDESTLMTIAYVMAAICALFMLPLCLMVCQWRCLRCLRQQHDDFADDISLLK

- inhibitor of the enzyme (in words): reasonably potent inhibitor
Substance: NH2-KTEEISEVN[sta]VAEF-COOH (H-KTEEISEVN[Sta]VAEF-OH) [P10-P4′staD→V]
